Laboratory results as given in article PMC6739812 (Protein Science : A Publication of the Protein Society, 2019).

Target: the molecule itself
Experiment: SEC-MALS

B1: InvCΔ79 (Salmonella T3SS ATPase InvC lacking the first 79 residues, with C-terminal Strep-tag) (domain or fragment, Salmonella typhimurium, UniProt P0A1B9 80-431, looked up)
chain: GRALSAWVGYSVLGAVLDPTGKIVERFTPEVAPISEERVIDVAPPSYASRVGVREPLITGVRAIDGLLTCGVGQRMGIFASAGCGKTMLMHMLIEQTEADVFVIGLIGERGREVTEFVDMLRASHKKEKCVLVFATSDFPSVDRCNAAQLATTVAEYFRDQGKRVVLFIDSMTRYARALRDVALASGERPARRGYPASVFDNLPRLLERPGATSEGSITAFYTVLLESEEEADPMADEIRSILDGHLYLSRKLAGQGHYPAIDVLKSVSRVFGQVTTPTHAEQASAVRKLMTRLEELQLFIDLGEYRPGENIDNDRAMQMRDSLKAWLCQPVAQYSSFDDTLSGMNAFADQN
- stoichiometry N: 2
